{"source": "patent US20180038860A1", "about": "(published 2018)", "molecules": {"B1": {"name": "recombinant native CTAC (ligand, UniProt Q9Y4X3 25-112, looked up)", "chain": "FLLPPSTACCTQLYRKPLSDKLLRKVIQVELQEADGDCHLQAFVLHLAQRSICIHPQNPSLSQWFEHQERKLHGTLPKLNFGMLRKMG"}, "B2": {"name": "biotinTARC (CCL17), TARC derivatised at the ε-amino side chain functionality of Lys(72) with PEG-Biotin (ligand)", "chain": "ARGTNVGRECCLEYFKGAIPLRKLKTWYQTSEDCSRDAIVFVTVQGRAICSDPNNKRVKNAVKYLQSLERSK([AEEA-Biotin])-NH2", "modifications": "disulfide 10-34, 11-50; ends not checked; also: TFA salt"}, "B3": {"name": "recombinant native MDC (ligand, UniProt O00626 25-93, looked up)", "chain": "GPYGANMEDSVCCRDYVRYRLPLRVVKHFYWTSDSCPRPGVVLLTFRDKEICADPRVPWVKMILNKLSQ"}, "B4": {"name": "recombinant native ITAC (ligand, UniProt O14625 22-94, looked up)", "chain": "FPMFKRGRCLCIGPGVKAVKVADIEKASIMYPSNNCDKIEVIITLKENKGQRCLNPKSKQARLIIKKVERKNF"}, "B5": {"name": "biotinCTAC (CCL27), CTAC derivatised at the ε-amino side chain functionality of Lys(87) with PEG-Biotin (ligand)", "chain": "FLLPPSTACCTQLYRKPLSDKLLRKVIQVELQEADGDCHLQAFVLHLAQRSICIHPQNPSLSQWFEHQERKLHGTLPKLNFGMLRKK([AEEA-Biotin])G-OH", "modifications": "disulfide 10-53, 9-38; ends not checked; also: TFA salt"}}, "assay_in_all_cases": "cell-based or functional assay", "key": {"hCCR9 (human)": {"target": "hCCR9 (human) (UniProt P51686)", "sequence (P51686 whole entry)": "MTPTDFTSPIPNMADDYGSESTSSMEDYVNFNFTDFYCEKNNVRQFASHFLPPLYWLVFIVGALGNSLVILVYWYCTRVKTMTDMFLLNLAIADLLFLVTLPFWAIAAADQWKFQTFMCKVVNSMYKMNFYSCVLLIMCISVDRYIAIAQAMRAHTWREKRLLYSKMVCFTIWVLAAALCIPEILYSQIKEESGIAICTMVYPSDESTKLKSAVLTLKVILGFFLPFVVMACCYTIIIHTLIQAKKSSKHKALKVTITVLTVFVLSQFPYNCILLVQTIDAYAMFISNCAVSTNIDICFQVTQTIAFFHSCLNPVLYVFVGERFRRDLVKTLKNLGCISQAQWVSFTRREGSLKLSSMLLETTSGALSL"}, "[1]": {"target": "T1, CCR6 on lymphocytes in blood of healthy donors (human) (UniProt P51684)", "T1 sequence (looked up)": "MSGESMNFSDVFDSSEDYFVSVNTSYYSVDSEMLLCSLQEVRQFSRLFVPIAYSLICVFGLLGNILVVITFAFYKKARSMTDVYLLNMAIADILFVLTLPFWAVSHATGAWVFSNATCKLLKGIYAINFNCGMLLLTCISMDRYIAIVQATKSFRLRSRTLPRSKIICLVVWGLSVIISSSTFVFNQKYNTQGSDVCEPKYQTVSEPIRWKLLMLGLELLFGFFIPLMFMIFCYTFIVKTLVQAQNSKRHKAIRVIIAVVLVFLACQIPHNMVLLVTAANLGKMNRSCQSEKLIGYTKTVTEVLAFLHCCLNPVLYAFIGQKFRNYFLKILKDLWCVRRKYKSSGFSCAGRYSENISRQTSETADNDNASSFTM"}, "hCXCR3 (human) [2]": {"target": "hCXCR3 (human) (UniProt P49682)", "sequence (P49682 whole entry)": "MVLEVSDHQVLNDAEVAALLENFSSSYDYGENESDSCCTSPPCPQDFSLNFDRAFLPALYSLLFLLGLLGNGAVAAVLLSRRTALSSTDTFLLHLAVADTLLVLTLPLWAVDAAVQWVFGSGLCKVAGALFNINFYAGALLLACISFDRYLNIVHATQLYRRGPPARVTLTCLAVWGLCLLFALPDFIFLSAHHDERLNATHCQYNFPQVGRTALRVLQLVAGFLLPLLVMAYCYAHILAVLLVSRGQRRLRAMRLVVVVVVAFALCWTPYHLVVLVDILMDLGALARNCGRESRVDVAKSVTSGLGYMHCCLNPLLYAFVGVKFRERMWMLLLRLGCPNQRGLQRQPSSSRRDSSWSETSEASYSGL"}, "hCCR2b (human)": {"target": "hCCR2b (human) (UniProt P41597)", "sequence (P41597 other isoform, or with tags, fused parts or gaps limits assumed)": "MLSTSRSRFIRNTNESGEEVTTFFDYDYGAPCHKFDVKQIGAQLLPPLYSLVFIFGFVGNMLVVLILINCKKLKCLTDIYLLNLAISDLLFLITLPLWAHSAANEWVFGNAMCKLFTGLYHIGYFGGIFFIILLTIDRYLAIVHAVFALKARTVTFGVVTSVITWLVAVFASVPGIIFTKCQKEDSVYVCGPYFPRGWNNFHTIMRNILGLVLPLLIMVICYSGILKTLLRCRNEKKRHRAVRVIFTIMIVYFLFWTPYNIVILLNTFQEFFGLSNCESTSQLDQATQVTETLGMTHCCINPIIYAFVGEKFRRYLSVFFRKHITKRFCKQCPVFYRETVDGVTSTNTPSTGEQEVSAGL"}, "hCCR6 (human)": {"target": "T2, hCCR6 (human) (UniProt P51684)", "T2 sequence (looked up)": "T1 sequence (looked up)"}, "hCCR7 (human)": {"target": "hCCR7 (human) (UniProt P32248)", "sequence (P32248 25-378 limits assumed)": "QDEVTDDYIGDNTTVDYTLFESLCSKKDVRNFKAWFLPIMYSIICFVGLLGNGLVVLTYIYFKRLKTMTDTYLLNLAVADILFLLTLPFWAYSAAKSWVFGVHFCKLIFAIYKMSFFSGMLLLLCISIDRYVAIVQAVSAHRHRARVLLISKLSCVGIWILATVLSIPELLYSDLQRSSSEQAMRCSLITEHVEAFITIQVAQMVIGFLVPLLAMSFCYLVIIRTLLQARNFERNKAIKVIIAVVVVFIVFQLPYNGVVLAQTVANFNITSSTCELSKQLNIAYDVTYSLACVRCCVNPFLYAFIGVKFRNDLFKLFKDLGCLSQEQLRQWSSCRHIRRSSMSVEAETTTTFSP"}, "hCCR4": {"target": "T3, hCCR4 (human, UniProt P51679 1-360)", "T3 sequence (looked up)": "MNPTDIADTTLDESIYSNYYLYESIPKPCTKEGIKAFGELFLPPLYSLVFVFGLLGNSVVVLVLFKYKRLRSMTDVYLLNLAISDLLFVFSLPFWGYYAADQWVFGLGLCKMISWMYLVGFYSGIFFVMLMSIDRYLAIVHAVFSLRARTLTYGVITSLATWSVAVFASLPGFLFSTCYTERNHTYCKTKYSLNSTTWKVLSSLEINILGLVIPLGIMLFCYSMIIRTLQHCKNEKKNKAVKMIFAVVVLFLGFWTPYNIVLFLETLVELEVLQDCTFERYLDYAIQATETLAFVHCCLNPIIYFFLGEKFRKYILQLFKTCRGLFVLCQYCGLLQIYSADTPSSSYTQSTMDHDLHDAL"}, "hCCR10": {"target": "T4, hCCR10 (human, UniProt P46092 1-362)", "T4 sequence (looked up)": "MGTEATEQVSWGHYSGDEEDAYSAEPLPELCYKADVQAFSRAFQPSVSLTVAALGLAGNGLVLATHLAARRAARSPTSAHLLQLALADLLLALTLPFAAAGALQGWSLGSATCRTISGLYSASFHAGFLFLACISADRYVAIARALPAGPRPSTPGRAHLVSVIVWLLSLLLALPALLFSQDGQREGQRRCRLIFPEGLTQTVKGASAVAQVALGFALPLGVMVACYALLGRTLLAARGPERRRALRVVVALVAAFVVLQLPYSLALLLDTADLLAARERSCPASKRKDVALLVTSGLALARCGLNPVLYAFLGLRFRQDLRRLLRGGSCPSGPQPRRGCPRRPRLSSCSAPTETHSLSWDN"}, "hCXCR3 (human) [3]": {"target": "hCXCR3 (human) (UniProt P49682)", "remark": "listed apart in the source"}}, "note": "Read-outs that look alike come from different tables or passages of the source. Bridge positions count the residues as written; N and C are the ends. Side chains are listed from the residue outwards. * marks the point of attachment. Biotin = O=C1N[C@H]2[C@H](CS[C@H]2CCCCC(=O)*)N1; AEEA = NCCOCCOCC(=O)O", "data": [{"molecule": "biotinTECK(Met to Nleu substitution) (CCL25), derivatised at the ε-amino side chain functionality of Lys72 with PEG-Biotin (from UniProt O15444 25-97) (ligand)", "values": [{"measurement": "EC50, Aequorin assay (agonist activity)", "setting": "hCCR9 (human)", "result": 63.6, "unit": "nM"}]}, {"molecule": "biotinylated MIP-3alpha coupled matrix (from UniProt P78556 27-96) (ligand)", "values": [{"measurement": "reduction of CCR6-expressing cells after column passage (flow cytometry)", "setting": "[1]", "result": "< 15", "unit": "%"}]}, {"molecule": "recombinant native IP-10 (from UniProt P02778 22-98) (ligand)", "values": [{"measurement": "EC50, Aequorin assay (agonist activity)", "setting": "hCXCR3 (human) [2]", "result": 4.4, "unit": "nM"}]}, {"molecule": "recombinant native MCP-2 (from UniProt P80075 24-99) (ligand)", "values": [{"measurement": "EC50, Aequorin assay (partial agonist)", "setting": "hCCR2b (human)", "result": 23.5, "unit": "nM"}]}, {"molecule": "recombinant native MIP-3α (from UniProt P78556 27-96) (ligand)", "values": [{"measurement": "EC50, Aequorin assay (agonist activity)", "setting": "hCCR6 (human)", "result": 1, "unit": "nM"}]}, {"molecule": "recombinant native MIP-3β (from UniProt Q99731 22-98) (ligand)", "values": [{"measurement": "EC50, Aequorin assay (agonist activity)", "setting": "hCCR7 (human)", "result": 1.6, "unit": "nM"}]}, {"molecule": "recombinant native TARC (from UniProt Q92583 24-94) (ligand)", "values": [{"measurement": "EC50, Aequorin assay (agonist activity)", "setting": "hCCR4", "result": 2.6, "unit": "nM"}]}, {"molecule": "recombinant native TECK (from UniProt O15444 24-150) (ligand)", "values": [{"measurement": "EC50, Aequorin assay (agonist activity)", "setting": "hCCR9 (human)", "result": 67.9, "unit": "nM"}]}, {"molecule": "B1", "values": [{"measurement": "EC50, Aequorin assay (agonist activity)", "setting": "hCCR10", "result": 33.5, "unit": "nM"}]}, {"molecule": "B2", "values": [{"measurement": "EC50, Aequorin assay (agonist activity)", "setting": "hCCR4", "result": 3.1, "unit": "nM"}]}, {"molecule": "B3", "values": [{"measurement": "EC50, Aequorin assay (agonist activity)", "setting": "hCCR4", "result": 3.6, "unit": "nM"}]}, {"molecule": "B4", "values": [{"measurement": "EC50, Aequorin assay (agonist activity)", "setting": "hCXCR3 (human) [3]", "result": 0.7, "unit": "nM"}]}, {"molecule": "B5", "values": [{"measurement": "EC50, Aequorin assay (agonist activity)", "setting": "hCCR10", "result": 49.4, "unit": "nM"}]}]}
